Paper PMC10899660 (2024)

B1: Recombinant Cyclin H (CCNH) protein with a C-HIS tag (natural protein)
chain: MYHNSSQKRHWTFSSEEQLARLRADANRKFRCKAVANGKVLPNDPVFLEPHEEMTLCKYYEKRLLEFCSVFKPAMPRSVVGTACMYFKRFYLNNSVMEYHPRIIMLTCAFLACKVDEFNVSSPQFVGNLRESPLGQEKALEQILEYELLLIQQLNFHLIVHNPYRPFEGFLIDLKTRYPILENPEILRKTADDFLNRIALTDAYLLYTPSQIALTAILSSASRAGITMESYLSESLMLKENRTCLSQLLDIMKSMRNLVKKYEPPRSEEVAVLKQKLERCHSAELALNVITKKRKGYEDDDYVSKKSKHEEEEWTDDDLVESL

Legend:
Assay in all cases: SPR
[1] = target: B1
[2] = target: B1
Ece1-III = target: Ece1-III

| Binder | koff [1] [s⁻¹] | Kd [2] [µM] | Kd (Ece1-III) [µM] | koff (Ece1-III) [s⁻¹] |
| --- | --- | --- | --- | --- |
| EDIDSVVAGIIADMPFVVRAVDTAMTSVASTKR [Ece1-IV, synthetic peptide] | 0.000297 | 5.98 |  |  |
| DVAPAAPAAPADQAPTVPAPQEFNTAITKR [Ece1-II, synthetic peptide] | 0.00415 | 9.13 |  |  |
| DGANDDVANAVVRLPEIVARVATGVQQSIENAKR [Ece1-V, synthetic peptide] | 0.000719 | 3.16 |  |  |
| B1 |  |  | 0.0172 | 0.00171 |
